Two molecules from US20210206865A1 (Regeneron, published 2021) can be followed below.

Substitutions are numbered along the chain they refer to.

Assay [1] has as its target T1, human CD3 on cells (Jurkat cells, primary human CD8+ T cells) (human, UniProt P07766 23-207; P04234 22-171; P20963 22-164; P09693 23-182).
T1 construct: CD3 complex as part of the TCR on T cells; also called hCD3; Jurkat-hCD3
The assay is described as follows: flow cytometry, Jurkat cells (human CD3), median EC50, n=5. As for the experimental part:
(§1) Flow cytometric analysis was utilized to determine binding of BCMA×CD3 bispecific antibodies to human and cynomolgus CD3 (Jurkat cells, mfCD3 engineered Jurkat cells, primary human CD8+ and cynomolgus CD8+ T cells). Briefly, 1e05 cells/well were incubated in the presence of FACS wash with block (PBS+1% filtered FBS+5% mouse serum) with a serial dilution of BCMA×CD3 and control antibodies for 30 minutes on ice. After incubation, the cells were washed twice with cold FACS wash (PBS+1% filtered FBS) and bound antibody was detected by incubating with Alexa647-conjugated anti-human secondary antibody on ice for an additional 30 minutes. Wells containing no antibody or secondary only were used as a control. For the detection of monkey and human T cells, a cocktail of human and cynomolgus cross-reactive antibodies to CD4, CD8 and CD16 was added to the anti-human secondary. After incubation, cells were washed, re-suspended in 200 μL cold PBS containing 1% filtered FBS and analyzed by flow cytometry on a BD FACS Canto II. Cells were gated by FSC-H by FSC-A to select singlet events, followed by side and forward scatters to select for live events. For monkey T cells, additional gating on CD8+/CD16-cells was performed.
(§2) EC50 values for FACS binding were calculated using 4-parameter non-linear regression analysis in Prism software.
In general terms: A flow cytometer gives signals particle by particle.

Assay [2] addresses T2, cynomolgus CD3 on cells (mfCD3 engineered Jurkat cells, primary cynomolgus CD8+ T cells) (cynomolgus, UniProt Q95LI5 22-198; Q95LI8 22-171).
T2 construct: whole, on cells; The engineered Jurkat line expresses cynomolgus CD3 epsilon and delta in place of the human versions (other chains remain human); primary cynomolgus T cells carry the whole cynomolgus complex; also called Jurkat-mfCD3; Mf (Cyno) CD3
In words: flow cytometry, primary cynomolgus CD8+ T cells, median EC50, n=1. As for the experimental part:
as §1, §2

For assay [3], the target named is T3, human BCMA on the surface of cell lines (NCI-H929, MM.1S, OPM-2, RPMI-8226, Daudi, Raji, MOLP-8, U266) (human, UniProt Q02223 1-184).
T3 sequence: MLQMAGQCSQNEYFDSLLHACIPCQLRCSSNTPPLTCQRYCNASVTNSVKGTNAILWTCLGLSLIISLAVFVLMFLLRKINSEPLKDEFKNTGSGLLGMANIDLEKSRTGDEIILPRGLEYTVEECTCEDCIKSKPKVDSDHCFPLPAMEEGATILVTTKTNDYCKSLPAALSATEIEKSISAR
The assay is described as follows: cell-based or functional assay.

In assay [4] the target is T3, human BCMA on the surface of cell lines …. In words: cell-based or functional assay. This is another data set of the same source.
Assay [5] has as its target T2, cynomolgus CD3 on cells (mfCD3 …). The assay is described as follows: flow cytometry, mfCD3 engineered Jurkat cells, median EC50, n=2. As to the method:
as §1, §2

Assay [6] concerns the target T3, human BCMA on the surface of cell lines …. The assay is described as follows: cell-based or functional assay. This is another data set of the same source.
The target is the same in assay [7]. In words: flow cytometry, Alexa647 conjugate on Raji cells. As to the method:
(§3) Cells were then washed and fixed for 25 mins at 4° C. using a 50% solution of BD Cytofix (BD, Cat #554655) diluted in PBS. […] After gating for live cells and single cells, the mean fluorescent intensity (MFI) was determined, and MFI values were plotted in Graphpad Prism using a four-parameter logistic equation over a 10-point response curve to calculate EC₅₀s. The zero condition for each dose-response curve is also included in the analysis as a continuation of the two-fold serial dilution and is represented as the lowest dose.

Assay [8] shares this target. The assay is described as follows: flow cytometry, Alexa647 conjugate on NCI-H929 cells. As to the method: as §3
The target is the same in assay [9]. In words: flow cytometry, Alexa647 conjugate on Daudi cells. As for the experimental part: as §3
Assay [10] has the same target. In words: flow cytometry, Alexa647 conjugate on RPMI-8226 cells. As for the experimental part:
as §3

For assay [11] the target is unchanged. The assay is described as follows: flow cytometry, Alexa647 conjugate on MM.1S cells. As to the method: as §3
The target is the same in assay [12]. In words: flow cytometry, Alexa647 conjugate on OPM-2 cells. As for the experimental part: as §3

T2 sequence (Q95LI5 22-198, stated change not applied, chain 1 of 2): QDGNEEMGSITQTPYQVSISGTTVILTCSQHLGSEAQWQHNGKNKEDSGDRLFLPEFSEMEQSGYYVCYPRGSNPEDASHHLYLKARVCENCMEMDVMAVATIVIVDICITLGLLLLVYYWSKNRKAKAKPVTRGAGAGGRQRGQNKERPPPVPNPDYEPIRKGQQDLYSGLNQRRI
T2 sequence (Q95LI8 22-171, stated change not applied, chain 2 of 2): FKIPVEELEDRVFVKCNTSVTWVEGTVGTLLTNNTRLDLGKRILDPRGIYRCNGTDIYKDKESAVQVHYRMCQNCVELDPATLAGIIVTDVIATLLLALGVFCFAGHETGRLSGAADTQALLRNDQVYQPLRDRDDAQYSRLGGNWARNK
T1 sequence (P07766 23-207 limits assumed, chain 1 of 4): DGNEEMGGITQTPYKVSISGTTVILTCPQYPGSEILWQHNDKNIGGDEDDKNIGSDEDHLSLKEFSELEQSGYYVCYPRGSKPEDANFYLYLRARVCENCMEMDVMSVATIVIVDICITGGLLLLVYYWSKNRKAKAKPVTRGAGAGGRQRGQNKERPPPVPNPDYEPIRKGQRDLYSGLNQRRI
T1 sequence (P04234 22-171 limits assumed, chain 2 of 4): as the sequence (Q95LI8 22-171, stated change not applied, chain 2 of 2) above, with V5I, K15N, V20I, T32S, N33D, N34I, A64T, N74S, L83V, R141H counted along it
T1 sequence (P20963 22-164 limits assumed, chain 3 of 4): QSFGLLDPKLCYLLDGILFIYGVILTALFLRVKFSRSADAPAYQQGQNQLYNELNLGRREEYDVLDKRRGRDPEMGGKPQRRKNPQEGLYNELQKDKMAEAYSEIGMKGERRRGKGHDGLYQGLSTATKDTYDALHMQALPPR
T1 sequence (P09693 23-182 limits assumed, chain 4 of 4): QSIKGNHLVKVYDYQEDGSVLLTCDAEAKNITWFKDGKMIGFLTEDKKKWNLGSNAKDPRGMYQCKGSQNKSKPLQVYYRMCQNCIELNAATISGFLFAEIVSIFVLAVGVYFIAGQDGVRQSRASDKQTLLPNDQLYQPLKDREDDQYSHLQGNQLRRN

B1: bsAb25441D bispecific antibody (REGN5458), anti-BCMA x anti-CD3 (bispecific antibody, human IgG4 S228P, kappa)
heavy 1: EVQLVESGGGLVQPGGSLRLSCAASGFTFSNFWMTWVRQAPGKGLEWVANMNQDGSEKYYVDSVKGRFTISRDNAKSSLYLQMNSLRAEDTAVYYCARDREYCISTSCYDDFDYWGQGTLVTVSSASTKGPSVFPLAPCSRSTSESTAALGCLVKDYFPEPVTVSWNSGALTSGVHTFPAVLQSSGLYSLSSVVTVPSSSLGTKTYTCNVDHKPSNTKVDKRVESKYGPPCPPCPAPPVAGPSVFLFPPKPKDTLMISRTPEVTCVVVDVSQEDPEVQFNWYVDGVEVHNAKTKPREEQFNSTYRVVSVLTVLHQDWLNGKEYKCKVSNKGLPSSIEKTISKAKGQPREPQVYTLPPSQEEMTKNQVSLTCLVKGFYPSDIAVEWESNGQPENNYKTTPPVLDSDGSFFLYSRLTVDKSRWQEGNVFSCSVMHEALHNHYTQKSLSLSLGK
heavy 2: EVQLVESGGGLVQPGRSLRLSCAASGFTFDDYSMHWVRQAPGKGLEWVSGISWNSGSKGYADSVKGRFTISRDNAKNSLYLQMNSLRAEDTALYYCAKYGSGYGKFYHYGLDVWGQGTTVTVSSASTKGPSVFPLAPCSRSTSESTAALGCLVKDYFPEPVTVSWNSGALTSGVHTFPAVLQSSGLYSLSSVVTVPSSSLGTKTYTCNVDHKPSNTKVDKRVESKYGPPCPPCPAPPVAGPSVFLFPPKPKDTLMISRTPEVTCVVVDVSQEDPEVQFNWYVDGVEVHNAKTKPREEQFNSTYRVVSVLTVLHQDWLNGKEYKCKVSNKGLPSSIEKTISKAKGQPREPQVYTLPPSQEEMTKNQVSLTCLVKGFYPSDIAVEWESNGQPENNYKTTPPVLDSDGSFFLYSRLTVDKSRWQEGNVFSCSVMHEALHNRFTQKSLSLSPGK
light: not shown
notes: Anti-BCMA arm from mAb21581, anti-CD3 arm and common light chain from mAb7221G; also called bsAb25441D9; mAb25441D
In general, EC50 refers to the concentration that produces a half-maximal response. The low end stands for a more potent agent, the high end for a less potent agent. The molecule B1 yielded an EC50 in assay [1] of 15 nM. Also, in [2], the EC50 was 46.6 nM. Also, in assay [3], the “EC50, Jurkat/NFATLuc reporter activation with Daudi cells” value worked out at 2.1 nM; the “EC50, Jurkat/NFATLuc reporter activation with MM1-S cells” value stood at 1.2 nM; the “EC50, Jurkat/NFATLuc reporter activation with NCI-H929 cells” value worked out at 0.68 nM; the “EC50, Jurkat/NFATLuc reporter activation with OPM-2 cells” value is 0.66 nM. In addition, in assay [4], the “Median EC50, % Survival of H929 target cells, human effector cells” value stood at 0.103 nM; the “Median EC50, % Survival of MM1S target cells, human effector cells” value amounted to 0.0646 nM; the “Median EC50, % Survival of U266 target cells, human effector cells” value was determined as 0.328 nM; the “Median EC50, % T activation with H929 target cells, human effector cells” value turned out to be 0.211 nM. In assay [4], the “Median EC50, % T activation with MM1S target cells, human effector cells” value worked out at 0.0706 nM and the “Median EC50, % T activation with U266 target cells, human effector cells” value worked out at 0.107 nM. This molecule also gave a concentration giving a half-maximal response (EC50) in assay [5] of 15.1 nM. Besides, in [6], the “Median EC50, % Survival of H929 target cells, cynomolgus effector cells” value is 0.0234 nM and the “Median EC50, % T activation with H929 target cells, cynomolgus effector cells” value amounted to 0.0683 nM.

B2: bsAb25442D bispecific antibody (REGN5459), anti-BCMA x anti-CD3 (bispecific antibody, human IgG4 S228P, kappa)
heavy 1: B1 heavy 1
heavy 2: B1 heavy 2 with K58I, H108Y, L111M
light: not shown
notes: Anti-BCMA arm from mAb21581, anti-CD3 arm and common light chain from mAb7221G20; also called mAb25442D; mAb25442D-A647
Take B2: the “S/N (ratio of mAb25442D-A647 MFI to Isotype-A647 MFI)” value in assay [7] came out at 2. The same molecule yielded an EC50 in assay [1] of 558 nM. Further, in assay [8], a half-maximal effect (EC50) was put at 79 nM and the “S/N (ratio of mAb25442D-A647 MFI to Isotype-A647 MFI)” value amounted to 470. Also, in assay [3], the “EC50, Jurkat/NFATLuc reporter activation with Daudi cells” value was 7.9 nM; the “EC50, Jurkat/NFATLuc reporter activation with MM1-S cells” value turned out to be 4.4 nM; the “EC50, Jurkat/NFATLuc reporter activation with NCI-H929 cells” value is 2.7 nM; the “EC50, Jurkat/NFATLuc reporter activation with OPM-2 cells” value turned out to be 2.6 nM. In [9], the “S/N (ratio of mAb25442D-A647 MFI to Isotype-A647 MFI)” value is 3. In addition, in [4], the “Median EC50, % Survival of H929 target cells, human effector cells” value was 0.301 nM; the “Median EC50, % Survival of MM1S target cells, human effector cells” value amounted to 0.288 nM; the “Median EC50, % Survival of U266 target cells, human effector cells” value came out at 1.66 nM; the “Median EC50, % T activation with H929 target cells, human effector cells” value was 0.3 nM. In assay [4], the “Median EC50, % T activation with MM1S target cells, human effector cells” value is 0.458 nM and the “Median EC50, % T activation with U266 target cells, human effector cells” value was 0.469 nM. In assay [10], the EC50 is 27 nM and the “S/N (ratio of mAb25442D-A647 MFI to Isotype-A647 MFI)” value was found to be 9. In assay [11], the EC50 was determined as 83 nM and the “S/N (ratio of mAb25442D-A647 MFI to Isotype-A647 MFI)” value turned out to be 43. For the same molecule, in assay [12], the midpoint of the response, the EC50, lay at 57 nM and the “S/N (ratio of mAb25442D-A647 MFI to Isotype-A647 MFI)” value worked out at 19. In [6], the “Median EC50, % Survival of H929 target cells, cynomolgus effector cells” value came to 0.0692 nM and the “Median EC50, % T activation with H929 target cells, cynomolgus effector cells” value was found to be 0.158 nM.
